According to patent publication US20170145086A1 (VISTERRA, published 2017):

T1: HA-GCN4 hAPRIL (amino acid residues 105-250) (human, UniProt O75888 105-250)
T1 construct: Bought (R&D Systems); also called HA-tagged GCN4 human APRIL; HA-GCN4-huAPRIL; not shown: N-terminal HA tag; GCN4 isoleucine zipper oligomerization domain
T1 sequence: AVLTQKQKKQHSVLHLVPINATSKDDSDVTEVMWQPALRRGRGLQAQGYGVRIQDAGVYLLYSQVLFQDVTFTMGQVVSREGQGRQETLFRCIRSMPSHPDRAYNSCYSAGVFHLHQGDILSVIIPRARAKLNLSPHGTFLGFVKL

T2: HA-GCN4 mAPRIL (amino acid residues 96-241) (mouse, UniProt Q9D777 96-241, Assembles as a homotrimer through the GCN4 zipper; one protomer is given.)
T2 construct: Bought (R&D Systems); also called HA-tagged mouse APRIL (R&D Systems); recombinant mouse APRIL; not shown: N-terminal HA tag and GCN4 isoleucine-zipper trimerisation domain, with any linker, of the bought R&D Systems protein
T2 sequence: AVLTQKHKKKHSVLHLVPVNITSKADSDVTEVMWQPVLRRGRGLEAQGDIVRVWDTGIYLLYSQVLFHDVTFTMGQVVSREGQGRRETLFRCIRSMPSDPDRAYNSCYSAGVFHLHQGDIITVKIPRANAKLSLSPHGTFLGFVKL

B1: monoclonal antibody 4540 (antibody, V domains shown)
VH: QVQLQQSGPELVKPGASVKISCKASGYTFADYYINWVKQRPGQGLEWIGWIFPGSGSTYYNEKFKGKATLTVDKSSSTAYMLLSSLTSEDSAVYFCARGDSGRAMDYWGQGTSVTVSS
VL: DIQMTQSPSSLSASLGGKVTITCKASQDINKYIAWYQHKPGKGPRLLIHYTSTLQSGIPSRFSGSGSGRDYSFSISNLEPEDNATYYCLQYDNLLTFGAGTKLELK
notes: mouse-derived
B2: monoclonal antibody 3530 (antibody, mouse IgG2, V domains shown)
VH: QVQLQQSGAELVRPGASVKLSCKASGYTFTDHEMHWVRQTPVHGLEWIGVIDPDTGDTTYNQKFKGKATLTADKSSSTAYMDLRSLTSEDSAVFYCTRWTGGDYWGHGTTLTVSS
VL: DAVMTQTPLSLSVTIGQPASISCKSSQSLLYSDGKTYLNWFQQRPGQSPKRLMYQVSKLDPGIPDRFSGSGSETDFTLKISRVEAEDLGVYYCLQGTYYPYTFGSGTKLEIK

Key:
[1] = target: T1, HA-GCN4 hAPRIL (amino acid residues …); experiment: blocking ELISA; blocked: human APRIL binding to TACI-Fc
[2] = target: T1, HA-GCN4 hAPRIL (amino acid residues …); experiment: blocking ELISA; blocked: human APRIL binding to BCMA-Fc
In short: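 HA-GCN4-tagged human APRIL (15 ng/mL) preincubated 1 h at 30 °C with antibody (0.03–30 μg/mL), then added 1 h at 30 °C to plates coated with BCMA-Fc. Bound APRIL detected with anti-HA-HRP/TMB at 450 nm; IC₅₀ from 4-parameter fit of antibody titration curves.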

[3] = target: T2, HA-GCN4 mAPRIL (amino acid residues …); experiment: blocking ELISA; blocked: mouse APRIL binding to human BCMA-Fc
Method: Recombinant TACI-Fc or BCMA-Fc was coated on 96 well plates in 0.1 M carbonate-bicarbonate buffer (pH 9.6), overnight at 4° C. Plates were washed three times with 1×PBST (PBS+0.025% Tween 20) followed by blocking with 1% BSA in 1×PBS, 37° C. for 1 hour. All subsequent wash steps were carried out with 1×PBST. To assess antibody blocking, either 15 ng/mL or 50 ng/mL HA-GCN4-huAPRIL was preincubated with varying antibody concentrations ranging from 0.03-30 μg/mL in binding buffer comprised of 1% BSA and 0.025% Tween-20 in 1×PBS. Preincubation was carried out at 30° C. for 1 hour with mixing. Antibody-APRIL premix with 50 ng/mL APRIL or 15 ng/mL APRIL was then added to TACI-Fc coated or BCMA-Fc coated plates, respectively, and incubated for an additional hour at 30° C. HA-tagged APRIL binding to either receptor was quantified using a goat polyclonal anti-HA tag-HRP antibody (Abcam) added at a 1:10000 dilution followed by colorimetric development using 100 μl/well of freshly prepared TMB substrate (KPL) carried out for up to 30 minutes at room temperature before quenching enzymatic reaction by the addition of 1N sulfuric acid. ELISA signal was quantified by absorbance at 450 nm. ELISA data was analyzed by non-linear regression. IC₅₀ values were calculated based on a 4 parameter fit of antibody titration curves. […]

Binder	IC50 [1] [nM]	Relative Activity (normalised to 2419) [1]	IC50 [2] [nM]	Relative Activity (normalised to 2419) [2]	IC50 (read off the curve) [3] [µg/mL]
B1	0.4	1.45	0.67	2.85	–
B2	–	–	–	–	~0.3
